Among the data in publication PMC6370476 are percent leached from the hydrogel after two weeks values, retold here.

The target in this assay is SpyTag-γPFD-Cys (not stated | Methanocaldococcus jannaschii). As to the kind of experiment: leaching of fluorescent protein from the hydrogel, fluorescence of the buffer.

For SpyCatcher-mCerulean3, the percent leached from the hydrogel after two weeks is 35%.
